Test results published in the supplement of paper PMC5998384.

Columns and labels:
HeLa Kyoto [1] = test: solubility in G1/S (NP-40 vs SDS abundance) (log2 ratio); higher = more soluble; conditions: cell cycle stage: G1/S
HeLa Kyoto [2] = test: melting temperature (median over replicates), in situ; higher = more thermally stable
HeLa Kyoto [3] = test: thermal stability score vs G1/S (z-score of summed log2 fold changes over temperatures); higher = more thermally stable than in G1/S
HeLa Kyoto [4] = test: solubility change mitosis vs G1/S (difference of NP-40 vs SDS log2 ratios) (log2 ratio difference); higher = more soluble in mitosis
[5] = cell cycle stage: early G1 (4.5 h after nocodazole release)
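For melting temperature (median over replicates), in situ in this document: HeLa Kyoto cells synchronized by double thymidine or nocodazole block, proteins quantified by TMT10plex mass spectrometry, three independent biological replicates.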
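For solubility change mitosis vs G1/S (difference of NP-40 vs SDS log2 ratios) in this document: synchronized HeLa Kyoto cells (double thymidine block for G1/S, nocodazole release for mitosis), protein amounts in NP-40 versus SDS lysates quantified by mass spectrometry, three biological replicates.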
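For solubility in G1/S (NP-40 vs SDS abundance) in this document: HeLa Kyoto cells arrested at G1/S by double thymidine block, proteins quantified by TMT10plex mass spectrometry in mild NP-40 versus SDS extracts, three biological replicates.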
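For thermal stability score vs G1/S (z-score of summed log2 fold changes over temperatures) in this document: synchronized HeLa Kyoto cells, proteins quantified by TMT10plex mass spectrometry, three biological replicates, mitosis taken 0.5 h after nocodazole release, G1/S directly after double thymidine block.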

Sequence	solubility in G1/S (log2) (HeLa Kyoto [1])	melting temperature (HeLa Kyoto [2]; cell cycle stage: G1/S)	melting temperature (HeLa Kyoto [2]; cell cycle stage: mitosis)	thermal stability score (HeLa Kyoto [3]; [5])	thermal stability score (HeLa Kyoto [3]; cell cycle stage: mitosis)	solubility change mitosis (log2) (HeLa Kyoto [4])
MVLADLGRKITSALRSLSNATIINEEVLNAMLKEVCTALLEADVNIKLVKQLRENVKSAIDLEEMASGLNKRKMIQHAVFKELVKLVDPGVKAWTPTKGKQNVIMFVGLQGSGKTTTCSKLAYYYQRKGWKTCLICADTFRAGAFDQLKQNATKARIPFYGSYTEMDPVIIASEGVEKFKNENFEIIIVDTSGRHKQEDSLFEEMLQVANAIQPDNIVYVMDASIGQACEAQAKAFKDKVDVASVIVTKLDGHAKGGGALSAVAATKSPIIFIGTGEHIDDFEPFKTQPFISKLLGMGDIEGLIDKVNELKLDDNEALIEKLKHGQFTLRDMYEQFQNIMKMGPFSQILGMIPGFGTDFMSKGNEQESMARLKKLMTIMDSMNDQELDSTDGAKVFSKQPGRIQRVARGSGVSTRDVQELLTQYTKFAQMVKKMGGIKGLFKGGDMSKNVSQSQMAKLNQQMAKMMDPRVLHHMGGMAGLQSMMRQFQQGAAGNMKGMMGFNNM [SRP54]	0.193	52 °C	50.4 °C	0.232	0.227	0.157
MVLGPEQKMSDDSVSGDHGESASLGNINPAYSNPSLSQSPGDSEEYFATYFNEKISIPEEEYSCFSFRKLWAFTGPGFLMSIAYLDPGNIESDLQSGAVAGFKLLWILLLATLVGLLLQRLAARLGVVTGLHLAEVCHRQYPKVPRVILWLMVELAIIGSDMQEVIGSAIAINLLSVGRIPLWGGVLITIADTFVFLFLDKYGLRKLEAFFGFLITIMALTFGYEYVTVKPSQSQVLKGMFVPSCSGCRTPQIEQAVGIVGAVIMPHNMYLHSALVKSRQVNRNNKQEVREANKYFFIESCIALFVSFIINVFVVSVFAEAFFGKTNEQVVEVCTNTSSPHAGLFPKDNSTLAVDIYKGGVVLGCYFGPAALYIWAVGILAAGQSSTMTGTYSGQFVMEGFLNLKWSRFARVVLTRSIAIIPTLLVAVFQDVEHLTGMNDFLNVLQSLQLPFALIPILTFTSLRPVMSDFANGLGWRIAGGILVLIICSINMYFVVVYVRDLGHVALYVVAAVVSVAYLGFVFYLGWQCLIALGMSFLDCGHTCHLGLTAQPELYLLNTMDADSLVSR [SLC11A2]	-0.142	58.8 °C	57.6 °C	2.43	-0.114	-0.211
MVLLHVLFEHAVGYALLALKEVEEISLLQPQVEESVLNLGKFHSIVRLVAFCPFASSQVALENANAVSEGVVHEDLRLLLETHLPSKKKKVLLGVGDPKIGAAIQEELGYNCQTGGVIAEILRGVRLHFHNLVKGLTDLSACKAQLGLGHSYSRAKVKFNVNRVDNMIIQSISLLDQLDKDINTFSMRVREWYGYHFPELVKIINDNATYCRLAQFIGNRRELNEDKLEKLEELTMDGAKAKAILDASRSSMGMDISAIDLINIESFSSRVVSLSEYRQSLHTYLRSKMSQVAPSLSALIGEAVGARLIAHAGSLTNLAKYPASTVQILGAEKALFRALKTRGNTPKYGLIFHSTFIGRAAAKNKGRISRYLANKCSIASRIDCFSEVPTSVFGEKLREQVEERLSFYETGEIPRKNLDVMKEAMVQAEEAAAEITRKLEKQEKKRLKKEKKRLAALALASSENSSSTPEECEEMSEKPKKKKKQKPQEVPQENGMEDPSISFSKPKKKKSFSKEELMSSDLEETAGSTSIPKRKKSTPKEETVNDPEEAGHRSGSKKKRKFSKEEPVSSGPEEAVGKSSSKKKKKFHKASQED [NOP56]	-2.05	54.6 °C	52 °C	-2.17	-6.89	1.28
MVLLKEYRVILPVSVDEYQVGQLYSVAEASKNETGGGEGVEVLVNEPYEKDGEKGQYTHKIYHLQSKVPTFVRMLAPEGALNIHEKAWNAYPYCRTVITNEYMKEDFLIKIETWHKPDLGTQENVHKLEPEAWKHVEAVYIDIADRSQVLSKDYKAEEDPAKFKSIKTGRGPLGPNWKQELVNQKDCPYMCAYKLVTVKFKWWGLQNKVENFIHKQERRLFTNFHRQLFCWLDKWVDLTMDDIRRMEEETKRQLDEMRQKDPVKGMTADD [PITPNA]	0.15	54.9 °C	55.5 °C	-1.26	-1.48	-0.0595
MVLNSLDKMIQLQKNTANIRNICVLAHVDHGKTTLADCLISSNGIISSRLAGKLRYMDSREDEQIRGITMKSSAISLHYATGNEEYLINLIDSPGHVDFSSEVSTAVRICDGCIIVVDAVEGVCPQTQAVLRQAWLENIRPVLVINKIDRLIVELKFTPQEAYSHLKNILEQINALTGTLFTSKVLEERAERETESQVNPNSEQGEQVYDWSTGLEDTDDSHLYFSPEQGNVVFTSAIDGWGFGIEHFARIYSQKIGIKKEVLMKTLWGDYYINMKAKKIMKGDQAKGKKPLFVQLILENIWSLYDAVLKKDKDKIDKIVTSLGLKIGAREARHSDPKVQINAICSQWLPISHAVLAMVCQKLPSPLDITAERVERLMCTGSQTFDSFPPETQALKAAFMKCGSEDTAPVIIFVSKMFAVDAKALPQNKPRPLTQEEIAQRRERARQRHAEKLAAAQGQAPLEPTQDGSAIETCPKGEEPRGDEQQVESMTPKPVLQEENNQESFIAFARVFSGVARRGKKIFVLGPKYSPLEFLRRVPLGFSAPPDGLPQVPHMAYCALENLYLLMGRELEYLEEVPPGNVLGIGGLQDFVLKSATLCSLPSCPPFIPLNFEATPIVRVAVEPKHPSEMPQLVKGMKLLNQADPCVQILIQETGEHVLVTAGEVHLQRCLDDLKERFAKIHISVSEPIIPFRETITKPPKVDMVNEEIGKQQKVAVIHQMKEDQSKIPEGIQVDSDGLITITTPNKLATLSVRAMPLPEEVTQILEENSDLIRSMEQLTSSLNEGENTHMIHQKTQEKIWEFKGKLEQHLTGRRWRNIVDQIWSFGPRKCGPNILVNKSEDFQNSVWTGPADKASKEASRYRDLGNSIVSGFQLATLSGPMCEEPLMGVCFVLEKWDLSKFEEQGASDLAKEGQEENETCSGGNENQELQDGCSEAFEKRTSQKGESPLTDCYGPFSGQLIATMKEACRYALQVKPQRLMAAMYTCDIMATGDVLGRVYAVLSKREGRVLQEEMKEGTDMFIIKAVLPVAESFGFADEIRKRTSGLASPQLVFSHWEIIPSDPFWVPTTEEEYLHFGEKADSENQARKYMNAVRKRKGLYVEEKIVEHAEKQRTLSKNK [EFTUD1]	-0.156	50.3 °C	50 °C	0.0185	-0.212	-0.154
MVLTLGESWPVLVGRRFLSLSAADGSDGSHDSWDVERVAEWPWLSGTIRAVSHTDVTKKDLKVCVEFDGESWRKRRWIEVYSLLRRAFLVEHNLVLAERKSPEISERIVQWPAITYKPLLDKAGLGSITSVRFLGDQQRVFLSKDLLKPIQDVNSLRLSLTDNQIVSKEFQALIVKHLDESHLLKGDKNLVGSEVKIYSLDPSTQWFSATVINGNPASKTLQVNCEEIPALKIVDPSLIHVEVVHDNLVTCGNSARIGAVKRKSSENNGTLVSKQAKSCSEASPSMCPVQSVPTTVFKEILLGCTAATPPSKDPRQQSTPQAANSPPNLGAKIPQGCHKQSLPEEISSCLNTKSEALRTKPDVCKAGLLSKSSQIGTGDLKILTEPKGSCTQPKTNTDQENRLESVPQALTGLPKECLPTKASSKAELEIANPPELQKHLEHAPSPSDVSNAPEVKAGVNSDSPNNCSGKKVEPSALACRSQNLKESSVKVDNESCCSRSNNKIQNAPSRKSVLTDPAKLKKLQQSGEAFVQDDSCVNIVAQLPKCRECRLDSLRKDKEQQKDSPVFCRFFHFRRLQFNKHGVLRVEGFLTPNKYDNEAIGLWLPLTKNVVGIDLDTAKYILANIGDHFCQMVISEKEAMSTIEPHRQVAWKRAVKGVREMCDVCDTTIFNLHWVCPRCGFGVCVDCYRMKRKNCQQGAAYKTFSWLKCVKSQIHEPENLMPTQIIPGKALYDVGDIVHSVRAKWGIKANCPCSNRQFKLFSKPASKEDLKQTSLAGEKPTLGAVLQQNPSVLEPAAVGGEAASKPAGSMKPACPASTSPLNWLADLTSGNVNKENKEKQPTMPILKNEIKCLPPLPPLSKSSTVLHTFNSTILTPVSNNNSGFLRNLLNSSTGKTENGLKNTPKILDDIFASLVQNKTTSDLSKRPQGLTIKPSILGFDTPHYWLCDNRLLCLQDPNNKSNWNVFRECWKQGQPVMVSGVHHKLNSELWKPESFRKEFGEQEVDLVNCRTNEIITGATVGDFWDGFEDVPNRLKNEKEPMVLKLKDWPPGEDFRDMMPSRFDDLMANIPLPEYTRRDGKLNLASRLPNYFVRPDLGPKMYNAYGLITPEDRKYGTTNLHLDVSDAANVMVYVGIPKGQCEQEEEVLKTIQDGDSDELTIKRFIEGKEKPGALWHIYAAKDTEKIREFLKKVSEEQGQENPADHDPIHDQSWYLDRSLRKRLHQEYGVQGWAIVQFLGDVVFIPAGAPHQVHNLYSCIKVAEDFVSPEHVKHCFWLTQEFRYLSQTHTNHEDKLQVKNVIYHAVKDAVAMLKASESSFGKP [KDM3A]	0.0198	48.6 °C	50.4 °C	-0.474	0.304	-0.158
